The results in this text go back to patent publication US20090325168.

One series deals with T1, 6-TMR-NorFES-KGY-DER.
T1 sequence: DAIPXSIPKGY

The next series concerns T2, 6-TMR-NorFES-KGY-6-TMR.
T2 sequence: DAIPXSIPKGY

Another series concerns T3, DER-NorFES-KGY-DER.
T3 sequence: DAIPXSIPKGY

Another series has as its system T4, 6-TMR-K-NorFES-KGY-6-TMR.
T4 sequence: KDAIPXSIPKGY

A further series concerns T5, 6-TMR-K-NorFES-KGY-DER.
T5 sequence: KDAIPXSIPKGY

Series [1] concerns T6, Fl-NorFES-KGY-Fl (fluorescein-NorFES-fluorescein).
T6 sequence: DAIPXSIPKGY

With elastase, the T1/2 (cleavage rate) with 6-TMR-NorFES-KGY-DER stood at 1.33 min; in the series with 6-TMR-NorFES-KGY-6-TMR, 0.733 min; in the series on DER-NorFES-KGY-DER, 2.53 min; with 6-TMR-K-NorFES-KGY-6-TMR, 1.4 min; with 6-TMR-K-NorFES-KGY-DER, 2.08 min; in series [1] it was 0.3 min.
